Data as given in patent publication US20190345216A1, “SorCS PEPTIDES AND USES THEREOF” (AARHUS UNIVERSITET, priority 2015, published 2019).
Entries after “also recorded” stand apart in the source; their conditions may differ.

Assays:
[1] = test system: SorCS2; assay: Western blot of SorCS2 expression in hippocampus and cortex after fluoxetine; assay type: in vivo, mouse; conditions: wt mice, fluoxetine in water for 3 weeks
Method: 3 wild-type mice were given either normal tap water or tap water containing 0.8 mg/ml fluoxetine for 3 weeks with water-chance once a week. Hereafter, the mice were euthanized by cervical dislocation and the hippocampus and cortex was dissected out. The samples were lysed in lysis buffer containing protease and phosphatase inhibitors. The samples were then analysed by Western blotting to see if treatment with fluoxetine can increase SorCS2 levels.

[2] = test system: Wild type and SorCS2−/− mice; assay: Marble burying test; assay type: in vivo, mouse; conditions: fluoxetine 20 mg/kg injected 1 hour before, 20 min test
Source text: The SorCS2 knockout mouse has been back-crossed for ten generations into C57/BL6J. Behavioral studies were done with the backcrossed homozygous mice compared to the same C57/BL6J substrain that was used for backcrossing (Glerup, Olsen et al., 2014). In the presented experiments, all mice lines had been backcrossed for ten generations into C57/BL6Jbom (Taconic) and littermate controls were used for experiments. All experiments were approved by the Danish Animal Experiments Inspectorate under the Ministry of Justice (Permit 2011/561-119) and carried according to institutional and national guidelines. All animals were bred and housed at the Animal Facility at Aarhus University. Animals were housed in groups of up to five mice per plastic cage (42×25×15 cm) under pathogen-free conditions with a 12-hour light/12-hour dark schedule and fed standard chow (Altromin #1324) and water ad libitum. Cages were cleaned every week and supplied with bedding and nesting material, a wooden stick, and a metal tunnel. Behavioral experiments were carried out using 12-16 weeks old male mice during their light cycle between 9:00 a.m. to 5:00 p.m. […]
Wild type and SorCS2^−/− mice were injected with either saline only or saline containing 20 mg/ml (20 mg/kg) fluoxetine (trade name Prozac™). […] They were then left for 20 min and hereafter the number of marbles that were more than 50% buried in each cage was counted.

[3] = molecular target: T1, TrkB (Homo sapiens, UniProt Q16620); assay: TrkB phosphorylation in transfected hSY5Y cells; assay type: cell-based; conditions: hSY5Y cells with SorCS2 and TrkB compared to only TrkB
T1 construct: expressed in transfected cells; host or cells: hSY5Y cells
T1 sequence (Q16620 32-822, species assumed): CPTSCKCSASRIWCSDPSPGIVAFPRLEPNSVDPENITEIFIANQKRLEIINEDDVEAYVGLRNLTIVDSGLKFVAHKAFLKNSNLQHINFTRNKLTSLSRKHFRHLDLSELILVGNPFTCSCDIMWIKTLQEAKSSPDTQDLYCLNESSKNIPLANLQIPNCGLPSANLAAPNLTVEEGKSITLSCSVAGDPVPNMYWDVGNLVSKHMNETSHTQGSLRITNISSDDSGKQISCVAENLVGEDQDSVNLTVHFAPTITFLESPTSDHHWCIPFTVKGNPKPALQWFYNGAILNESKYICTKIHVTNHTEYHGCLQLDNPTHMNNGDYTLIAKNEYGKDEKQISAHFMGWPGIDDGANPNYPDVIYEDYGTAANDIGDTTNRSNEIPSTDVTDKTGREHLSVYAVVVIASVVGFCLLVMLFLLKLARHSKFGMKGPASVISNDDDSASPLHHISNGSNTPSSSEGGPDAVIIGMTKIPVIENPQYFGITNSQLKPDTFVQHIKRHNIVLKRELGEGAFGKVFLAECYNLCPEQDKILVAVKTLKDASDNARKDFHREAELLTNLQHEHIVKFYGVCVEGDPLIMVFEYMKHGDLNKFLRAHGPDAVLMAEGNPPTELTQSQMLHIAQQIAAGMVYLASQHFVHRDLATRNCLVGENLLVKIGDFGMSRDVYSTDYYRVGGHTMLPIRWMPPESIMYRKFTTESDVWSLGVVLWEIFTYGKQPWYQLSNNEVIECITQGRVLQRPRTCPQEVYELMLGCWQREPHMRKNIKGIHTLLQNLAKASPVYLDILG
Source text: (§1) In FIG. 6 it is shown that SorCS2 is important for phosphorylation of the BDNF-receptor TrkB.hSY5Y cells were transfected with either SorCS2, TrkB or both (FIG. 6, panels A and B). Upon stimulation with BDNF a 2.5 fold increase in phosphorylation of TrkB was seen when SorCS2 was also present, compared to when only TrkB was present (FIG. 6, panel B). […] This indicates a critical role of SorCS2 in mediating the response to BDNF

[4] = test system: hippocampal neurons; assay: BDNF induced formation of inhibitory synapses and spine density in vitro; assay type: cell-based, mouse; conditions: 1 nM BDNF; for number of glutamatergic synapses/spines: 24 hours; for number of inhibitory synapses: 72 hrs
Method: For studies on BDNF induced formation of inhibitory synapses, neurons from p0 wild type (wt) and SorCS2^−/− pups were seeded at a density of 100.000 neurons per coverslip. After 7 days in vitro, the medium was changed to medium containing either 1 nM of BDNF or similar volumes of sterile D-PBS. Neurons were incubated for 72 hrs at 37° C. and 5% CO2 before being fixed for 20 min in ice cold 4% PFA. After three 5 min washes in D-PBS, the neurons were stained against gephyrin, an inhibitory marker, and co stained against Map2, a marker of the dendritic tree. Images were taken by confocal microscopy and analysed using Imaris software.
To determine spine density in vitro, hippocampal neurons were isolated at PO and grown in culture at a density of 100.000 neurons pr coverslip. After 7 days in vitro the neurons were transfected with a plasmid containing GFP using Lipofectamine LTX reagent (15338-100) using the suppliers protocol. At 13 days in vitro the medium was changed to medium containing either 1 nM or 0 nM BDNF. Hereafter the cells were left in the incubator at 37° C. for 24 hours before being fixed in 4% PFA for 20 minutes at room temperature. To determine spine density, confocal images were obtained and subsequently assessed using Imaris software.

[5] = test system: SorCS2−/− neurons; assay: BDNF-mediated branching of SorCS2−/− neurons transfected with SorCS2 constructs; assay type: cell-based, mouse
Method: To study the role of SorCS2 in BDNF-mediated branching (FIG. 4B-G), SorCS2^−/− neurons were seeded at a density of 100.000 neurons pr coverslip in media containing the desired SorCS2 mutant together with GFP. After 6 hours, the medium was changed to normal neurobasal A medium containing either 1 nM BDNF or similar volume of sterile PBS. The neurons were incubated for 72 hrs at 37° C. and 5% CO2 before being fixed for 20 min in ice cold 4% PFA, before a three times 5 min washes in D-PBSPictures were taken using a confocal microscope and the branching patterns were analysed using Zen 2011 Image Processing (Carl Zeiss) as follows: The 1st, 2nd, 3rd and 4th order branching patterns of GFPpositive neurons were counted where 1st order branches were defined as neurites protruding from the cell soma and were only considered 1st order branches if the branch was longer than the diameter of the soma. 2nd order branches were defined as processes extending from the 1st order branch, and so forth. […]

[6] = test system: SorCS2; assay: SorCS2 phosphorylation (32P labelling, immunoprecipitation, autoradiography); assay type: cell-based, mouse; conditions: wt neurons; 1 nM BDNF 10 minutes vs unstimulated
Method: For studies on SorCS2 phosphorylation (FIG. 4A), wt neurons were seeded at a density of 2.5 million pr 6-well. After five days in culture, the medium was changed to phosphate-free medium+0.4 mCi/ml of ^32P labelled phosphate and left for 4 hours 37° C. and 5% CO2. Hereafter, the neurons were washed once in phosphate-free medium and medium is added containing 1 nM BDNF or similar volume of sterile PBS. This is left on for 10 minutes before removing the media and adding lysis buffer containing protease- and phosphatase-inhibitors. From the samples, immunoprecipitation was carried out using antibodies against SorCS2. The samples were then analyzed by SDS-gel and subsequent autoradiography to evaluate the phosphorylation of SorCS2.

[7] = test system: PLCy; assay: PLCy phosphorylation in transfected hSY5Y cells; assay type: cell-based; conditions: hSY5Y cells with SorCS2 and TrkB compared to only TrkB
Source text: as §1

[8] = test system: wild type neurons; assay: Morphological (neurotrophic) response of wild type neurons to SorCS2 tail peptides; assay type: cell-based, mouse; conditions: wt neurons; 1 nM BDNF
Method: (§2) To determine dendritic branching of neurons in vitro, hippocampal neurons were isolated from PO mice and grown in culture at a density of 5000 neurons per coverslip. After 24 hours the medium was changed to medium containing either 1 nM of BDNF or same volume of sterile PBS. Hereafter, the cells were left in the incubator at 37° C. for 72 hours before being fixed in 4% PFA for 20 minutes at room temperature. To determine cell morphology, the neurons were stained against β-tubulin (β-tubulin mouse mAb chemicon MAB3408). Images were taken using a confocal microscope and the branching patterns were analysed using Zen 2011 Image Processing (Carl Zeiss) as follows: The 1st, 2nd, 3rd and 4th order branching patterns the neurons were counted where 1S^t order branches were defined as neurites protruding from the cell soma and were only considered 1st order branches if the branch was longer than the diameter of the soma. 2nd order branches were defined as processes extending from the 1st order branch, and so forth.
We next created peptides similar to the intracellular tail of SorCS2. The first peptide had similar sequence to wild type SorCS2 tail except the serines at position 1125, 1128 and 1130, which had been changed to aspartic acids. Furthermore a TAT sequence had been added to facilitate entry into the neurons (FIG. 11), denoted “Ppep”.

[9] = test system: hippocampal neurons; assay: Dendritic branching of neurons in vitro upon BDNF; assay type: cell-based, mouse; conditions: 1 nM BDNF
Method: as §2
For studies on BDNF induced morphological changes of GABAergic interneurons, neurons from p3 WT and SorCS2^−/− pups were seeded at a density of 5.000 neurons per coverslip. The WT and SorCS2^−/− neurons were seeded in 1 mL Neurobasal-A Medium containing either 1 nM BDNF or similar volumes of sterile D-PBS. The neurons were incubated for 72 hrs at 37° C. and 5% CO2 before being fixed for 20 min in ice cold 4% PFA. After three 5 min washes in D-PBS, neurons were stained, against mouse anti-β-tubulin and rabbit anti-GABA. Pictures were taken using a confocal microscope and the branching patterns were analysed using Zen 2011 Image Processing (Carl Zeiss) as follows: The 1st, 2nd, 3rd and 4th order branching patterns the neurons were counted where 1st order branches were defined as neurites protruding from the cell soma and were only considered 1st order branches if the branch was longer than the diameter of the soma. 2nd order branches were defined as processes extending from the 1st order branch, and so forth.

Question: `CNCCC(Oc1ccc(C(F)(F)F)cc1)c1ccccc1` (stereo not drawn) [fluoxetine] was tested. Which “expression of SorCS2 (Western blot)” value ([1]; cortex) did it give?
Answer: not in the cortex

Question: And the “expression of SorCS2 (Western blot)” value ([1]; hippocampus)?
Answer: increase

Question: And the “number of marbles buried” value ([2]; SorCS2−/− mice)?
Answer: this effect was not observed; also recorded: this was not the case

Question: What about the “number of marbles buried” value ([2]; wild type mice) of the same molecule?
Answer: calmed and buried less marbles

B1: BDNF: brain-derived neurotrophic factor, ligand of tyrosine kinase receptor TrkB (protein, UniProt P23560 19-247, looked up)
Neurotrophic factor BDNF …: APMKEANIRGQGGLAYPGVRTHGTLESVNGPKAGSRGLTSLADTFEHVIEELLDEDQKVRPNEENNKDADLYTSRVMLSSQVPLEPPLLFLLEEYKNYLDAANMSMRVRRHSDPARRGELSVCDSISEWVTAADKKTAVDMSGGTVTVLEKVPVSKGQLKQYFYETKCNPMGYTKEGCRGIDKRHWNSQCRTTQSYVRALTMDSKKRIGWRFIRIDTSCVCTLTIKRGR
Question: How did the “increase in phosphorylation of TrkB upon BDNF stimulation” value [3] turn out when B1 was run?
Answer: 2.5 fold

Question: And the “number of glutamatergic synapses/spines” value ([4]; neurons lacking SorCS2)?
Answer: not the case

Question: What about the “number of inhibitory synapses” value ([4]; neurons lacking SorCS2) of the same molecule?
Answer: not the case

Question: And the “number of glutamatergic synapses/spines” value ([4]; wt neurons)?
Answer: increase

Question: And the “number of inhibitory synapses” value ([4]; wt neurons)?
Answer: increase

Question: What about the “neurite branching response to BDNF” value ([5]; SorCS2−/− neurons transfected with S1128A variant) of the same molecule?
Answer: lost

Question: What about the “neurite branching response to BDNF” value ([5]; SorCS2−/− neurons transfected with S1130A variant) of the same molecule?
Answer: lost

Question: And the “neurite branching response to BDNF” value ([5]; SorCS2−/− neurons transfected with full length SorCS2, 1 nM BDNF)?
Answer: rescues the response; also recorded: able to rescue response

Question: What about the “neurite branching response to BDNF” value ([5]; SorCS2−/− neurons transfected with full-length variant S1125A, S1128A and S1130A) of the same molecule?
Answer: diminished

Question: And the “neurite branching response to BDNF” value ([5]; SorCS2−/− neurons transfected with variant lacking the intracellular domain)?
Answer: no increase in neurite branching

Question: What about the “neurite branching response to BDNF” value ([5]; SorCS2−/− neurons transfected with variant with deletion of 56 amino acids) of the same molecule?
Answer: lost

Question: What about the “neurite branching response to BDNF” value ([5]; SorCS2−/− neurons transfected with variant with deletion of the last 21 amino acids) of the same molecule?
Answer: still rescued the phenotype

Question: And the “neurite branching response to BDNF” value ([5]; SorCS2−/− neurons transfected with variant with deletion of the last 35 amino acids)?
Answer: still rescued the phenotype

Question: What about the “phosphorylation of SorCS2” value [6] of the same molecule?
Answer: increased phosphorylation

Question: What about the “phosphorylation of PLCy upon BDNF stimulation” value [7] of the same molecule?
Answer: significant increase

Question: What about the “complexity of neurons compared to neurons without BDNF (FIG. 13)” value [8] of the same molecule?
Answer: increased in complexity

Question: And the “dendritic complexity (branching)” value ([9]; GABAergic interneurons lacking SorCS2, 72 hrs)?
Answer: non-responsive

Question: And the “dendritic complexity (branching)” value ([9]; glutamatergic neurons lacking SorCS2, 72 hours)?
Answer: not the case

Question: What about the “dendritic complexity (branching)” value ([9]; wt GABAergic interneurons, 72 hrs) of the same molecule?
Answer: increase in complexity

Question: And the “dendritic complexity (branching)” value ([9]; wt glutamatergic neurons, 72 hours)?
Answer: increase in complexity
